First the molecules themselves.
B1: human DRAXIN, AVEXIS prey or bait protein (ligand)
chain: GALAPGTPARNLPENHIDLPGPALWTPQASHHRRRGPGKKEWGPGLPSQAQDGAVVTATRQASRLPEAEGLLPEQSPAGLLQDKDLLLGLALPYPEKENRPPGWERTRKRSREHKRRRDRLRLHQGRALVRGPSSLMKKAELSEAQVLDAAMEESSTSLAPTMFFLTTFEAAPATEESLILPVTSLRPQQAQPRSDGEVMPTLDMALFDWTDYEDLKPDGWPSAKKKEKHRGKLSSDGNETSPAEGEPCDHHQDCLPGTCCDLREHLCTPHNRGLNNKCFDDCMCVEGLRCYAKFHRNRRVTRRKGRCVEPETANGDQGSFINV
notes: It was tested in both bait and prey orientations
B2: human DRAXIN 21 amino acid Netrin binding fragment, AVEXIS prey or bait protein (peptide)
peptide: EVMPTLDMALFDWTDYEDLKP
notes: Tested in both bait and prey orientations; also called human 21 amino acid DRAXIN fragment; derived 21 amino acid peptide; not shown: AVEXIS tag (rat Cd4d3+4 and prey or bait module)

Data set [1] addresses T1, human Netrin-4, AVEXIS protein (human, UniProt Q9HB63 19-628).
T1 construct: not shown: AVEXIS tag (bait or prey)
T1 sequence (looked up): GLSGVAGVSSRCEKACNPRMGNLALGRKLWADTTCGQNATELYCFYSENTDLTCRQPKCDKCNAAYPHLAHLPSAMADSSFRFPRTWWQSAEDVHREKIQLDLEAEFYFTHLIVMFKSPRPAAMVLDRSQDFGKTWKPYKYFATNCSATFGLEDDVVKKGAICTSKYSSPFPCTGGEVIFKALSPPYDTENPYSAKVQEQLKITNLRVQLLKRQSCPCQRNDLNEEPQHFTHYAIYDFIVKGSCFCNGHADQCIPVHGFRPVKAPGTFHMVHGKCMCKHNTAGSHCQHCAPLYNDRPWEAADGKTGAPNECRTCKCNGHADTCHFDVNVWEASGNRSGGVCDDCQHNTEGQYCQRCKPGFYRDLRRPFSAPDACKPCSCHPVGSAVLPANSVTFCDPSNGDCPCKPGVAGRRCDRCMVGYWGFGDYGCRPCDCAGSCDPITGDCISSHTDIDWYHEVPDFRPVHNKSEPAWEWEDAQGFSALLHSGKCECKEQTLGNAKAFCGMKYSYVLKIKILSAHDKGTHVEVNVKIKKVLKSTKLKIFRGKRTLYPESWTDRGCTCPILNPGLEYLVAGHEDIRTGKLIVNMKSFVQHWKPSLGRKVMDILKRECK
As to the kind of experiment: AVEXIS, prey NTN4 on bait DRAXIN. The text has this:
(§1) The Matn4-bait served as an internal prey-protein control and was used for normalization of the A486 nm values; conditioned medium (CM) serves as negative control; n=3.

The target in data set [2] is T2, biotinylated recombinant human UNC5B (human, UniProt Q8IZJ1 27-377).
T2 construct: Made in HEK293-6E and immobilised on an SA chip
Put plainly: AVEXIS, prey DRAXIN on bait UNC5B.
From the text: as §1

For data set [3], the target named is T3, zebrafish DraxinB, AVEXIS protein (zebrafish).
T3 chain: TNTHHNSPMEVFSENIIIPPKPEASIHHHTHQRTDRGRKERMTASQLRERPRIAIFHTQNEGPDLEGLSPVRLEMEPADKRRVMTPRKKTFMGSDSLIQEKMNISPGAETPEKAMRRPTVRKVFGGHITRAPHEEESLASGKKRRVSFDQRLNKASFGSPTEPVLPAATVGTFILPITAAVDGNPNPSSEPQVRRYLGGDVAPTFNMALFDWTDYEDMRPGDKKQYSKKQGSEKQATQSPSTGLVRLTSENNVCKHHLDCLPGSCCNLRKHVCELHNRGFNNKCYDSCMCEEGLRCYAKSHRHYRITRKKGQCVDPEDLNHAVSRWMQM
Put plainly: AVEXIS, prey on bait zDraxinB, lower value; white = No binding.

Data set [4] has as its target T4, human Netrin-G1, AVEXIS protein (human, UniProt Q9Y2I2 29-510).
T4 construct: not shown: AVEXIS tag (bait or prey)
T4 sequence (looked up): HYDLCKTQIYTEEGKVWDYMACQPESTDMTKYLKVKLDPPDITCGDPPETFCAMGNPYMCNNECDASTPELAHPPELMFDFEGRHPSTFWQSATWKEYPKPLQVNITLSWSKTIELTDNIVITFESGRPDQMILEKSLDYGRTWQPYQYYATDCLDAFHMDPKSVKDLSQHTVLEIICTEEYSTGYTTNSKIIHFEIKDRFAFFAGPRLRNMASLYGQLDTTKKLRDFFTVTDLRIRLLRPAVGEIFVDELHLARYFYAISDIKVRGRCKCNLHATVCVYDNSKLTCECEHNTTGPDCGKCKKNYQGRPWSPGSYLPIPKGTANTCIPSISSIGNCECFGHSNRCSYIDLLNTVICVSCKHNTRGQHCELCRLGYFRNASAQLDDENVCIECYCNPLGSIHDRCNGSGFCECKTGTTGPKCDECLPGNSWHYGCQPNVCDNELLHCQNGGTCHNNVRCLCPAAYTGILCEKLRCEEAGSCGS
Put plainly: AVEXIS, prey on bait NTNG1; white = No binding.
From the text: as §1

Data set [5] has as its target B2. Put plainly: AVEXIS, prey on bait DRAXIN 21aa; white = No binding.
From the text: as §1

The target of data set [6] is T5, zebrafish DraxinA, AVEXIS prey or bait protein (zebrafish, UniProt Q4V9H3 24-360).
T5 construct: Prey and bait forms of the same protein are kept as one molecule; Preys are pentameric except in the monomeric-prey experiments; also called DraxinA prey protein
T5 chain: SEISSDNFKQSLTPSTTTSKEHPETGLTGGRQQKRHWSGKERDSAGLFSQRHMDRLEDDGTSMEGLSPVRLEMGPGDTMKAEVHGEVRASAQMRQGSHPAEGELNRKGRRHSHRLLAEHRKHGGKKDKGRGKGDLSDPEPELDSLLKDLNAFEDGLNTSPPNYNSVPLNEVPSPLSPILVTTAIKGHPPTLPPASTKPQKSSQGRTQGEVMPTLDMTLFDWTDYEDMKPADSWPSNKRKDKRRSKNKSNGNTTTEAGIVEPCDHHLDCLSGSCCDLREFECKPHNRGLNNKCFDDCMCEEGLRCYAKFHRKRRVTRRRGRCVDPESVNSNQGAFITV
Put plainly: AVEXIS, prey on bait zDraxinA, upper value; white = No binding.

For data set [7], the target named is T5, zebrafish DraxinA, AVEXIS prey or bait …. Put plainly: AVEXIS, prey on bait zDraxinA, lower value; white = No binding.
Data set [8] deals with T6, human Netrin-G2, AVEXIS protein (human, UniProt Q96CW9 18-507).
T6 construct: not shown: AVEXIS tag (bait or prey)
T6 sequence (looked up): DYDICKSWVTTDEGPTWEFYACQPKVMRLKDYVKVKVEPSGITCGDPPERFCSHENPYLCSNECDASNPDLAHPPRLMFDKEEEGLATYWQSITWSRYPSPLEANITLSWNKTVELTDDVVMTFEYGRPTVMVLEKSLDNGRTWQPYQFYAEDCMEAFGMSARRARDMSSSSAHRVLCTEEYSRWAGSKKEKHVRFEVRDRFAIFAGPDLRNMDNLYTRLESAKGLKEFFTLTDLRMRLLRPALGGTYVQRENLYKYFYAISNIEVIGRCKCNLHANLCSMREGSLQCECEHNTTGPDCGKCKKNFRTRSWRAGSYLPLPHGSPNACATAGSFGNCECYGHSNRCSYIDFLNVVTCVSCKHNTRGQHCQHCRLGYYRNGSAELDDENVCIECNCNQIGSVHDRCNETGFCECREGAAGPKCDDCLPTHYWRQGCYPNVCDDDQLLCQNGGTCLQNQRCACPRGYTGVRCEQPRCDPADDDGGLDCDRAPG
As to the kind of experiment: AVEXIS, prey on bait NTNG2; white = No binding.
From the text: as §1

The target of data set [9] is T6, human Netrin-G2, AVEXIS protein. As to the kind of experiment: AVEXIS, prey NTNG2 on bait DRAXIN.
From the text: as §1

Data set [10] has as its target T3, zebrafish DraxinB, AVEXIS protein. Put plainly: AVEXIS, prey on bait zDraxinB, upper value; white = No binding.
Data set [11] has as its target T2, biotinylated recombinant human UNC5B. As to the kind of experiment: AVEXIS, prey on bait UNC5B; white = No binding.
From the text: as §1

For data set [12], the target named is T7, human Netrin1, recombinant AVEXIS protein (biotinylated when immobilised) (human, UniProt O95631 25-604).
T7 construct: also called NTN1
Put plainly: AVEXIS, prey on bait NTN1; dark = Binding.
From the text: as §1

Data set [13] has as its target T4, human Netrin-G1, AVEXIS protein. As to the kind of experiment: AVEXIS, prey NTNG1 on bait DRAXIN.
From the text: as §1

Data set [14] has as its target T8, Matn4 ECD, mono-biotinylated bait protein (positive control).
T8 construct: extracellular domain; also called Matn4-bait
Put plainly: AVEXIS, prey on bait Matn4 (+), positive control for the prey; dark = Binding.
From the text: as §1

Data set [15] deals with T1, human Netrin-4, AVEXIS protein. Put plainly: AVEXIS, prey on bait NTN4; white = No binding.
From the text: as §1

Data set [16] concerns the molecule itself. As to the kind of experiment: AVEXIS, prey DRAXIN 21aa on bait DRAXIN 21aa.
From the text: as §1

Data set [17] has as its target B1. Put plainly: AVEXIS, prey DRAXIN on bait DRAXIN 21aa.
From the text: as §1

In data set [18] the target is B1. Put plainly: AVEXIS, prey on bait DRAXIN; white = No binding.
From the text: as §1

Data set [19] deals with the molecule itself. As to the kind of experiment: AVEXIS, prey on bait DRAXIN 21aa; white = No binding.
From the text: as §1

Data set [20] concerns the target T1, human Netrin-4, AVEXIS protein. As to the kind of experiment: AVEXIS, prey NTN4 on bait DRAXIN 21aa.
From the text: as §1

Data set [21] deals with T2, biotinylated recombinant human UNC5B. Put plainly: AVEXIS, prey DRAXIN 21aa on bait UNC5B.
From the text: as §1

Data set [22] deals with T6, human Netrin-G2, AVEXIS protein. Put plainly: AVEXIS, prey NTNG2 on bait DRAXIN 21aa.
From the text: as §1

Data set [23] addresses T4, human Netrin-G1, AVEXIS protein. Put plainly: AVEXIS, prey NTNG1 on bait DRAXIN 21aa.
From the text: as §1

For the molecule B1, the binding result in data set [1], in data set [2], in data set [9] and in data set [13] was “no binding” in each case. Further, the A486nm in [3] turned out to be 0.058; in data set [4], 0.077; in [5], 0.063; in data set [6], 0.06; in data set [7] it was 0.06; in data set [8], 0.072. Also, the A486nm in data set [10] was found to be 0.056; in data set [11], 0.078; in [12] it was 0.361; in [14], 0.213; in data set [15], 0.076.

In the case of B2, the binding result in data set [16], in data set [17], in [20], in [21], in data set [22] and in data set [23] was “no binding” throughout. The A486nm in data set [4] was found to be 0.066; in data set [18], 0.063; in [19] it was 0.059; in data set [8] it was 0.062; in data set [11], 0.062; in [12] it was 0.342. Further, the A486nm in [14] was found to be 0.252; in data set [15] it was 0.063.
